Measured values: patent US20240309051A1, “[…] T (TFH) CELLS […] TO SARS-COV-2 VIRUS” (priority 2021, published 2024)

Target: T1, SARS-COV-2 S protein, S867-881 peptide with residue 3 (Q) of SEQ ID NO: 13 replaced with alanine peptide on … (human)
T1 peptide: DEMIAAYTSALLAGT
Assay: activation reporter or marker

B1: Clone 1 (TCR-017) (TCR)
alpha TRAV12-1 TRAJ12 CDR3: CVVNRGSSYKLIF
beta TRBV11-2 TRBJ2-7 CDR3: CASSQTYEQYF
- binding result: no recognition
